Reference: US20200347130A1 (JIANGSU HENGRUI MEDICINE, published 2020)

Legend:
[1] = target: T1, CD96 extracellular region with His tag (CD96-His) (human, UniProt P40200 22-519); experiment: blocking cell ELISA: antibody pre-mixed with Bio-CD96-His, added to fixed CD155-CHO cells, HRP-streptavidin, OD450; blocked ligand: human CD155 on CHO cells
T1 construct: also called CD96-ECD-His; Bio-CD96-His (biotin-labelled form)
T1 sequence: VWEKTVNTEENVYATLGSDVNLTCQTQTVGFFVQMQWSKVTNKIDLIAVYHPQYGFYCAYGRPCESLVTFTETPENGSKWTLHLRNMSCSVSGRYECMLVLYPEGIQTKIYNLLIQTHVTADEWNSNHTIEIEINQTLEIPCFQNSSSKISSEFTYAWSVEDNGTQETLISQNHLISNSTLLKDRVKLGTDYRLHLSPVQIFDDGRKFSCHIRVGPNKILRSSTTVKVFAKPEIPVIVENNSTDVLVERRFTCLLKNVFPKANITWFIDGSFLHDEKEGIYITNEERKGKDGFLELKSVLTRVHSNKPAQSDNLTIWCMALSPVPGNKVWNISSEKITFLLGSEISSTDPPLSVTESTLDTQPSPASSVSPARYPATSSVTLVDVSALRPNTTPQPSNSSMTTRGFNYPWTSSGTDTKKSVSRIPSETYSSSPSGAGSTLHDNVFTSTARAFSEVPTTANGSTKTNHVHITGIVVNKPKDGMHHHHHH
Protocol: CD155-CHO cells (constructed by Shanghai Hengrui) were seeded in 96-well culture plates at a density of 9×10⁴/100 μL/well and cultured overnight. After aspirating the supernatant, the plate was washed once with PBS, 100 μl/well of immunostaining fixation solution (Biyuntian, Cat No. P0098) was added and fixed for one hour at room temperature, and the plate was washed three times with PBS. After discarding the liquid, 250 μl/well of 5% skim milk (BD, Cat No. 232100) blocking solution diluted with PBS was added, and the plate was blocked in an incubator at 37° C. for 2.5 hours. After blocking, the blocking solution was discarded, subsequently, the plate was washed 4 times with PBST buffer (pH 7.4 PBS containing 0.05% tween-20). […] The absorption value was read at 450 nm with a NOVOStar microplate reader, and the EC50 value of the effect of CD96 antibody on blocking the binding between the antigens and CD155-CHO cells was calculated (see FIG. 2 and Table 16).

[2] = target: T2, CD96 epitope peptide #3 IAVYHPQYGFYCAYGRPCES (47-66) (human); experiment: peptide ELISA, peptide coated
T2 construct: also called 3# peptides; #3 antigen fragment
T2 peptide: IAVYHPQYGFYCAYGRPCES
Protocol: (§1) The epitopes recognized by anti-CD96 antibody were detected by the assay of binding the antibody to different polypeptide fragments of CD96 protein. The fragments of different polypeptides of the CD96 antigen were coated on the microtiter plate. The signal density after the antibody was added was used to judge the binding activity of the antibody and the polypeptide. The specific experimental method is as follows:
(§2) The polypeptides were diluted to a concentration of 20 μg/ml with PBS buffer (Shanghai Yuanpei Biotechnology Co., Ltd. Cat No. B320), pH 7.4, added to a 96-well microtiter plate (Corning, Cat No. CLS3590-100EA) at a volume of 50 μl/well, and coated at 4° C. overnight. After discarding the liquid, 250 μl/well of 5% skim milk (BD skim milk, Cat No. 232100) blocking solution diluted with PBS was added, and the plate was incubated in an incubator at 37° C. for 3 hours. After blocking, the blocking solution was discarded, and the plate was washed 5 times with PBST buffer (pH 7.4 PBS containing 0.05% tween-20). 50 μl/well of different concentrations of the antibodies to be tested (hybridoma purification antibody or humanized antibody) diluted with sample dilution was added, and the plate was incubated in an incubator at 37° C. for 2 hours. […] After washing the plate 5 times with PBST, 50 μl/well of TMB chromogenic substrate (KPL, Cat No. 52-00-03) was added, the plate was incubated at room temperature for 5-15 min, followed by adding 50 μl/well of 1M H₂SO₄ to stop the reaction. The absorption value was read at 450 nm with a microplate reader (Thermo Scientific MuLtiskan MK3), and the epitopes that CD96 antibody can recognize were analyzed.

[3] = target: T3, CD96 epitope peptide #19 (280-299) (human); experiment: peptide ELISA, peptide coated
T3 peptide: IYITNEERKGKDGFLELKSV
Protocol: as §1, §2

[4] = target: T4, CD96 epitope peptide #9 (137-156) (human); experiment: peptide ELISA, peptide coated
T4 peptide: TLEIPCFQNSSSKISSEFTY
Protocol: as §1, §2

[5] = target: T5, CD96 epitope peptide #13 (196-215) (human); experiment: peptide ELISA, peptide coated
T5 peptide: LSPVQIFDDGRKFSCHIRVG
Protocol: as §1, §2

[6] = target: T6, CD96 epitope peptide #18 (265-284) (human); experiment: peptide ELISA, peptide coated
T6 peptide: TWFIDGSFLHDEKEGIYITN
Protocol: as §1, §2

[7] = target: T7, CD96 epitope peptide #11 (166-185) (human); experiment: peptide ELISA, peptide coated
T7 peptide: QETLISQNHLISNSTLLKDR
Protocol: as §1, §2

[8] = target: T8, CD96 epitope peptide #4 (62-81) (human); experiment: peptide ELISA, peptide coated
T8 peptide: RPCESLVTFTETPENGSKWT
Protocol: as §1, §2

B1: h1719-010 (antibody, V domains shown)
VH: EVTLKESGPVLVKPTETLTLTCTVSGFSLSSYGVSWVRQPPGKGLEWLGVIWGDGNTNYHSVLISRLTISKDTSKSQVVLTLTNMDPVDTATYYCAKQNYYGSRYGYPIDYWGQGTTVTVSS
VL: DIQMTQSPSSVSASVGDRVTITCKATQDVGTAVAWYQQKPGKAPKLLIYWASTRHTGVPSRFSGSGSGTDFTLTISSLQPEDFATYYCQQYGSSVLTFGGGTKVEIK
notes: Only variable regions are tied to this name
- IC50 (read off the curve) [1]: ~0.6 nM

B2: ch1720 (antibody, human IgG4 S228P, kappa, V domains shown)
VH: EFQLQQSGPELVKPGASVKISCKASAYSLTDYNMNWVKQSNGKSLEWIGVINPSYGISSYNQKFKGKATLTVDQSSSTAYMHLNSLTSEDSAVYYCARQLRLPGYFDVWGTGTTVTVSS
VL: DIKMTQSPSSKNASLGERVTITCKASQDINSYLNWFQQKPGKSPKTLIYRASRLVDGVPSRFSGSGSGQDYSLTISSLEYEDMGIYYCLKYDEFPYTFGGGTKLEIKR
notes: also called chimeric antibody corresponding to m1720
- binding result [2]: binds

B3: ch1718 (antibody, human IgG4 S228P, kappa, V domains shown)
VH: EFQLQQSGPELVKPGASVKISCKASAYSITDYNMNWVKQSNGKSLEWIGVINPSYGITDYNQNFKDKATLTVDQSSSTAYMQLNSLTSEDSAVYYCAIQLRLPGYFDVWGTGTTVIVSS
VL: DIKMTQSPSSMYASLGERVTITCKASQDINNYLNWFQQKPGKSPKTLIYRANRLVDGVPSRFSGSGSGQDYSLTISSLEYEDMGIYYCLKYDEFPYTFGGGTKVEIKR
notes: also called chimeric antibody corresponding to m1718
- binding result [3]: binds
- binding result [4]: binds
- binding result [5]: binds
- binding result [6]: binds
- binding result [7]: binds
- binding result [8]: binds
